# Assays:
# Assay in all cases: cell-based or functional assay
# [1] = target: HIV-1 Env of isolate 92UG001 (subtype D) (HIV-1)
# [2] = target: HIV-1 Env of isolate 92UG005 (subtype D) (HIV-1)
# [3] = target: HIV-1 Env of isolate 92UG024 (subtype D) (HIV-1)
# [4] = target: HIV-1 Env of isolate 92UG046 (subtype D) (HIV-1)
# [5] = target: HIV-1 Env of isolate 92UG114 (subtype D) (HIV-1)
# [6] = target: HIV-1 Env of isolate 98CN006 (subtype CRF08_BC) (HIV-1)
# [7] = target: HIV-1 Env of isolate 98CN009 (subtype CRF07_BC) (HIV-1)
# [8] = target: HIV-1 Env of isolate MGRM-D-001 (subtype D) (HIV-1)
# [9] = target: HIV-1 Env of isolate MGRM-D-002 (subtype D) (HIV-1)
# [10] = target: HIV-1 Env of isolate MGRM-D-003 (subtype D) (HIV-1)
# [11] = target: HIV-1 Env of isolate MGRM-D-004 (subtype D) (HIV-1)
# [12] = target: HIV-1 Env of isolate MGRM-D-005 (subtype D) (HIV-1)
# [13] = target: HIV-1 Env of isolate MGRM-D-008 (subtype D) (HIV-1)
# [14] = target: HIV-1 Env of isolate MGRM-D-011 (subtype D) (HIV-1)
# [15] = target: HIV-1 Env of isolate MGRM-D-012 (subtype D) (HIV-1)
# [16] = target: HIV-1 Env of isolate MGRM-D-013 (subtype D) (HIV-1)
# [17] = target: HIV-1 Env of isolate MGRM-D-014 (subtype D) (HIV-1)
# [18] = target: HIV-1 Env of isolate MGRM-D-016 (subtype D) (HIV-1)
# [19] = target: HIV-1 Env of isolate MGRM-D-018 (subtype D) (HIV-1)
# [20] = target: HIV-1 Env of isolate MGRM-D-019 (subtype D) (HIV-1)
# [21] = target: HIV-1 Env of isolate MGRM-D-020 (subtype D) (HIV-1)
# [22] = target: HIV-1 Env of isolate MGRM-D-021 (subtype D) (HIV-1)
# [23] = target: HIV-1 Env of isolate MGRM-D-022 (subtype D) (HIV-1)
# [24] = target: HIV-1 Env of isolate MGRM-D-024 (subtype D) (HIV-1)
# [25] = target: HIV-1 Env of isolate MGRM-D-026 (subtype D) (HIV-1)
# [26] = target: HIV-1 Env of isolate MGRM-D-028 (subtype D) (HIV-1)
# [27] = target: HIV-1 Env of isolate MGRM-D-029 (subtype D) (HIV-1)
# [28] = target: HIV-1 Env of isolate MGRM-F1-004 (subtype F) (HIV-1)
# [29] = target: HIV-1 Env of isolate MGRM-F1-006 (subtype F) (HIV-1)
# [30] = target: HIV-1 Env of isolate MGRM-F1-008 (subtype F) (HIV-1)
# [31] = target: HIV-1 Env of isolate MGRM-F1-010 (subtype F) (HIV-1)
# [32] = target: HIV-1 Env of isolate MGRM-F1-012 (subtype F) (HIV-1)
# [33] = target: HIV-1 Env of isolate MGRM-F1-013 (subtype F) (HIV-1)
# [34] = target: HIV-1 Env of isolate MGRM-F1-014 (subtype F) (HIV-1)
# [35] = target: HIV-1 Env of isolate MGRM-F1-015 (subtype F) (HIV-1)
# [36] = target: HIV-1 Env of isolate MGRM-F1-016 (subtype F) (HIV-1)
# [37] = target: HIV-1 Env of isolate MGRM-F1-017 (subtype F) (HIV-1)
# [38] = target: HIV-1 Env of isolate MGRM-F1-018 (subtype F) (HIV-1)
# [39] = target: HIV-1 Env of isolate MGRM-F1-020 (subtype F) (HIV-1)
# [40] = target: HIV-1 Env of isolate MGRM-F1-021 (subtype F) (HIV-1)
# [41] = target: HIV-1 Env of isolate MGRM-F1-022 (subtype F) (HIV-1)
# [42] = target: HIV-1 Env of isolate MGRM-F1-023 (subtype F) (HIV-1)
# [43] = target: HIV-1 Env of pseudovirus isolate MGRM-G-001 (subtype G) (HIV-1)
# [44] = target: HIV-1 Env of pseudovirus isolate MGRM-G-004 (subtype G) (HIV-1)
# [45] = target: HIV-1 Env of pseudovirus isolate MGRM-G-006 (subtype G) (HIV-1)
# [46] = target: HIV-1 Env of pseudovirus isolate MGRM-G-009 (subtype G) (HIV-1)
# [47] = target: HIV-1 Env of pseudovirus isolate MGRM-G-011 (subtype G) (HIV-1)
# [48] = target: HIV-1 Env of pseudovirus isolate MGRM-G-013 (subtype G) (HIV-1)
# [49] = target: HIV-1 Env of pseudovirus isolate MGRM-G-014 (subtype G) (HIV-1)
# [50] = target: HIV-1 Env of pseudovirus isolate MGRM-G-015 (subtype G) (HIV-1)
# [51] = target: HIV-1 Env of pseudovirus isolate MGRM-G-016 (subtype G) (HIV-1)
# [52] = target: HIV-1 Env of pseudovirus isolate MGRM-G-017 (subtype G) (HIV-1)
# [53] = target: HIV-1 Env of pseudovirus isolate MGRM-G-019 (subtype G) (HIV-1)
# [54] = target: HIV-1 Env of pseudovirus isolate MGRM-G-024 (subtype G) (HIV-1)
# [55] = target: HIV-1 Env of pseudovirus isolate MGRM-G-025 (subtype G) (HIV-1)
# [56] = target: HIV-1 Env of pseudovirus isolate MGRM-G-027 (subtype G) (HIV-1)
# [57] = target: HIV-1 Env of pseudovirus isolate MGRM-G-028 (subtype G) (HIV-1)
# [58] = target: envelope of aMLV pseudovirus (negative control)
binder,measurement,setting,value
"PGT-137 (antibody, V domains shown) VH: EVHLEESGPGLVRPSETLSLTCTASGGSIRGGEWGDSDYHWGWVRHSPEKGLEWIGSIHWRGTTHYNAPFRGRGRLSIDLSRNQFSLRLTSVTAEDTAVYYCVKHKYHDIVMVVPIAGWFDPWGQGLQVTVSS VL: EIMMTQSPAILSVSPGDRATLSCRASQSVKNNLAWYQKRPGQAPRLLIFDTSSRASGIPARFSGGGSGTEFTLTVNSMQSEDFATYYCQQYEEWPRTFGQGTKVEIK",IC50 (neutralization),[1],> 50 µg/mL
same,IC50 (neutralization),[2],> 50 µg/mL
same,IC50 (neutralization),[3],0.106 µg/mL
same,IC50 (neutralization),[4],> 50 µg/mL
same,IC50 (neutralization),[5],> 50 µg/mL
same,IC50 (neutralization),[6],1.22 µg/mL
same,IC50 (neutralization),[7],5.06 µg/mL
same,IC50 (neutralization),[8],> 50 µg/mL
same,IC50 (neutralization),[9],> 50 µg/mL
same,IC50 (neutralization),[10],> 50 µg/mL
same,IC50 (neutralization),[11],> 50 µg/mL
same,IC50 (neutralization),[12],> 50 µg/mL
same,IC50 (neutralization),[13],> 50 µg/mL
same,IC50 (neutralization),[14],6.3 µg/mL
same,IC50 (neutralization),[15],> 50 µg/mL
same,IC50 (neutralization),[16],> 50 µg/mL
same,IC50 (neutralization),[17],> 50 µg/mL
same,IC50 (neutralization),[18],> 50 µg/mL
same,IC50 (neutralization),[19],15.1 µg/mL
same,IC50 (neutralization),[20],> 50 µg/mL
same,IC50 (neutralization),[21],> 50 µg/mL
same,IC50 (neutralization),[22],> 50 µg/mL
same,IC50 (neutralization),[23],> 50 µg/mL
same,IC50 (neutralization),[24],> 50 µg/mL
same,IC50 (neutralization),[25],> 50 µg/mL
same,IC50 (neutralization),[26],> 50 µg/mL
same,IC50 (neutralization),[27],> 50 µg/mL
same,IC50 (neutralization),[28],40.3 µg/mL
same,IC50 (neutralization),[29],> 50 µg/mL
same,IC50 (neutralization),[30],> 50 µg/mL
same,IC50 (neutralization),[31],> 50 µg/mL
same,IC50 (neutralization),[32],> 50 µg/mL
same,IC50 (neutralization),[33],> 50 µg/mL
same,IC50 (neutralization),[34],> 50 µg/mL
same,IC50 (neutralization),[35],> 50 µg/mL
same,IC50 (neutralization),[36],> 50 µg/mL
same,IC50 (neutralization),[37],> 50 µg/mL
same,IC50 (neutralization),[38],> 50 µg/mL
same,IC50 (neutralization),[39],1.93 µg/mL
same,IC50 (neutralization),[40],> 50 µg/mL
same,IC50 (neutralization),[41],6.23 µg/mL
same,IC50 (neutralization),[42],> 50 µg/mL
same,IC50,[43],41.7 µg/mL
same,IC50,[44],> 50 µg/mL
same,IC50,[45],> 50 µg/mL
same,IC50,[46],> 50 µg/mL
same,IC50,[47],> 50 µg/mL
same,IC50,[48],> 50 µg/mL
same,IC50,[49],> 50 µg/mL
same,IC50,[50],> 50 µg/mL
same,IC50,[51],> 50 µg/mL
same,IC50,[52],34.9 µg/mL
same,IC50,[53],0.126 µg/mL
same,IC50,[54],0.051 µg/mL
same,IC50,[55],> 50 µg/mL
same,IC50,[56],0.228 µg/mL
same,IC50,[57],> 50 µg/mL
same,IC50,[58],> 50 µg/mL

# Source: patent publication US20160264649A1
